The labels stand for the following.
B1: Azoarcus group I ribozyme (parent)
chain: GUGCCUUGCGCCGGGAAACCACGCAAGGGAUGGUGUCAAAUUCGGCGAAACCUAAGCGCCCGCCCGGGCGUAUGGCAACGCCGAGCCAAGCUUCGGCGCCUGCGCCGAUGAAGGUGUAGAGACUAGACGGCACCCACCUAAGGCAAACGCUAUGGUGAAGGCAUAGUCCAGGGAGUGGCGAAAGUCACACAAACCGG

The variants in the data set derive from B1. Kind of data set: reverse-splicing fitness (ratio to wild type); higher = more active; in vitro selection; Mg2+ level not given. The essentials: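 An in vitro group I ribozyme library with randomized positions was T7-transcribed and gel-purified. In triplicate, 10 pmol RNA in EPPS pH 7.5 was reacted with 50 pmoles of a 30-nt RNA substrate for 1 h at 37 °C across several added MgCl2 levels (1–48 mM), then stopped with EDTA. Products were reverse transcribed from a substrate-complementary primer, PCR-amplified and sequenced (HiSeq 4000). Fitness is a variant's read proportion after selection over that before, normalised to wild type.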
As for C82G A111C C150G C169G U176A, the reverse-splicing fitness worked out at 0.00734.
Regarding C82G A111G A120C A145G C169G, the reverse-splicing fitness was determined as 0.0079.
Then C82G A111G A120C A145G C169A, with 0.00771.
The result for C82G A111G A120C A145G C169U reads 0.015; that for C82G A111G A120C A145U C150U C169A U176C, 0.0137; that for C82G A111G A120C A145U C150U C169A U176A, 0.0171.
Take C82G A111G A120C A145U C150U C169A U176G: the reverse-splicing fitness stood at 0.00592.
The result for C82G A111G A120C C150A U176C reads 0.0277; that for C82G A111G A120C C150A U176A, 0.014.
Then C82G A111G A120C C150A U176G, with 0.0141.
C82G A111G A120C A145G C150G C169A U176A: the reverse-splicing fitness was found to be 0.0153.
The result for C82G A111G A120C A145G C150G C169A U176G reads 0.0091; that for C82G A111G A120C A145G C150G C169A U176C, 0.0151.
The result for C82G A111G A120C A145G reads 0.0871.
With C82G A111G A120C A145U, the reverse-splicing fitness is 0.0901.
The result for C82G A111G A120C A145C reads 0.0798.
The result for C82G A111G A120C A145C C150A C169U U176G reads 0.00668; that for C82G A111G A120C A145C C150A C169U U176A, 0.0148; that for C82G A111G A120C A145C C150A C169U U176C, 0.0126.
Then C82G A111G A120C A145U C150U U176C, with 0.0348.
Consider C82G A111G A120C A145U C150U U176G, for which the reverse-splicing fitness was found to be 0.00869.
The result for C82G A111G A120C A145U C150U U176A reads 0.0202; that for C82G A111G A120C A145G C150A C169U U176A, 0.0153; that for C82G A111G A120C A145G C150A C169U U176G, 0.00817.
Consider C82G A111G A120C A145G C150A C169U U176C, for which the reverse-splicing fitness was 0.015.
For C82G A111G A120C A145G C150U C169G U176A, the reverse-splicing fitness was 0.0174.
Then C82G A111G A120C A145G C150U C169G U176G, with 0.00597; and C82G A111G A120C A145G C150U C169G U176C, with 0.0192; and C82G A111G A120C A145C C150U C169U U176A, with 0.013.
Then C82G A111G A120C A145C C150U C169U U176C, with 0.0121.
The result for C82G A111G A120C A145C C150U C169U U176G reads 0.00553.
Consider C82G A111C C169A U176G, for which the reverse-splicing fitness came out at 0.00611.
The result for C82G A111C C169A U176C reads 0.023.
Then C82G A111C C169A U176A, with 0.0198; and C82G A111G A120C A145C C169U U176A, with 0.0142.
C82G A111G A120C A145C C169U U176C: the reverse-splicing fitness was 0.01.
The result for C82G A111G A120C A145C C169U U176G reads 0.00475.
The result for C82G A111G A120C A145U C150A C169G U176A reads 0.0168; that for C82G A111G A120C A145U C150A C169G U176C, 0.0209.
On to C82G A111G A120C A145U C150A C169G U176G, for which the reverse-splicing fitness was 0.00622.
The result for C82G A111G A120C C150G C169G U176G reads 0.00647; that for C82G A111G A120C C150G C169G U176A, 0.00929; that for C82G A111G A120C C150G C169G U176C, 0.0117.
Then C82G A111G A120C A145G C169U U176G, with 0.00492.
The result for C82G A111G A120C A145G C169U U176C reads 0.0147; that for C82G A111G A120C A145G C169U U176A, 0.0142.
As to C82G A111G A120C A145C C150A C169G U176G, the reverse-splicing fitness was 0.00633.
Then C82G A111G A120C A145C C150A C169G U176C, with 0.0173.
Then C82G A111G A120C A145C C150A C169G U176A, with 0.026; and C82G A111G A120C A145U C150G U176A, with 0.00634; and C82G A111G A120C A145U C150G U176C, with 0.0121.
The result for C82G A111G A120C A145U C150G U176G reads 0.00435; that for C82G A111G A120C C150U C169A U176A, 0.0199.
Take C82G A111G A120C C150U C169A U176G: the reverse-splicing fitness turned out to be 0.00693.
As for C82G A111G A120C C150U C169A U176C, the reverse-splicing fitness amounted to 0.0182.
With C82G A111G A120C C169A U176A, the reverse-splicing fitness is 0.017.
Then C82G A111G A120C C169A U176C, with 0.0162; and C82G A111G A120C C169A U176G, with 0.00532; and C82G A111G A120C A145C C150G, with 0.0108.
The result for C82G A111G A120C A145C C150A reads 0.011; that for C82G A111G A120C A145C C150U, 0.0209.
The result for C82G A111G A120C C150U C169A reads 0.0102; that for C82G A111G A120C C150U C169U, 0.0144; that for C82G A111G A120C C150U C169G, 0.00909.
As for C82G A111C C169G U176C, the reverse-splicing fitness is 0.0255.
Then C82G A111C C169G U176A, with 0.0182; and C82G A111C C169G U176G, with 0.00724.
Then C82G A111G A120C A145C C150G C169G, with 0.00805; and C82G A111G A120C A145C C150G C169A, with 0.00872.
The result for C82G A111G A120C A145C C150G C169U reads 0.00968; that for C82G A111G A120C C150G U176A, 0.00594; that for C82G A111G A120C C150G U176C, 0.0121.
Regarding C82G A111G A120C C150G U176G, the reverse-splicing fitness amounted to 0.00412.
Then C82G A111G A120C A145U C150A C169U U176A, with 0.0146; and C82G A111G A120C A145U C150A C169U U176C, with 0.0136.
Then C82G A111G A120C A145U C150A C169U U176G, with 0.00626.
The result for C82G A111G A120C A145U C150U C169G U176G reads 0.00596; that for C82G A111G A120C A145U C150U C169G U176A, 0.0171; that for C82G A111G A120C A145U C150U C169G U176C, 0.0179.
In the case of C82G A111G A120C C150A C169A U176G, the reverse-splicing fitness was 0.00841.
The result for C82G A111G A120C C150A C169A U176C reads 0.0204; that for C82G A111G A120C C150A C169A U176A, 0.0223.
Turning to C82G A111G A120C A145C C150A C169U, the reverse-splicing fitness is 0.00986.

These data come from the RNAGym collection of RNA variant scans (doi:10.1093/molbev/msab373).
